In the supplement of paper PMC10567573 one finds protein stability index data, which are given here for 94 variants.

Sequences and labels used below:
B1: MMP1 (parent)
chain: YTPDLPRADVDHAIEKAFQLWSNV
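Further: lentivirally expressed fusions sorted by FACS into six bins by GFP to DsRed ratio, PSI derived from sequencing read proportions per bin multiplied by bin number.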

This series covers variants of B1. In words: protein stability index of a GFP-peptide fusion (GPS, HEK-293T) (PSI 1-6); higher = more stable. The note with it: c terminus: a fixed tail appended.
As for YTPDLPRADVDHLIEKAFQLWSNV [A13L], the protein stability index came out at 1.63. With YTPDLPRADVDHQIEKAFQLWSNV [A13Q] the figure was 2.03; with YTPDLPRADVDHVIEKAFQLWSNV [A13V], 2.79; with YTPDLPRADVDHGIEKAFQLWSNV [A13G], 3.15.

As to YTPDLPRADVDHDIEKAFQLWSNV [A13D], the protein stability index came to 1.71.

Consider YTPDLPRADVDHFIEKAFQLWSNV [A13F], for which the protein stability index was 1.79. With YTPDLPRADVDHSIEKAFQLWSNV [A13S] the figure was 1.89; with YTPDLPRADVDHKIEKAFQLWSNV [A13K], 2.1. YTPDLPRADVDHCIEKAFQLWSNV [A13C]: the protein stability index is 1.93.

On to YTPDLPRADVDHPIEKAFQLWSNV [A13P], for which the protein stability index was found to be 1.58. Then YTPDLPRADVDHTIEKAFQLWSNV [A13T], with 3; and YTPDLPRADVDHNIEKAFQLWSNV [A13N], with 2.11. Then YTPDLPRADVDHYIEKAFQLWSNV [A13Y], with 1.95.

Take YTPDLPRADVDHEIEKAFQLWSNV [A13E]: the protein stability index was found to be 2.19. Then YTPDLPRADVDHMIEKAFQLWSNV [A13M], with 2.61; and YTPDLPRADVDHIIEKAFQLWSNV [A13I], with 2.27; and YTPDLPRADVDHHIEKAFQLWSNV [A13H], with 2.27. With YTPDLPRADVDHRIEKAFQLWSNV [A13R] the figure was 2.08; with YTPDLPRADVDHWIEKAFQLWSNV [A13W], 2.06. Turning to YTPDLPRADVDHAIEKPFQLWSNV [A17P], the protein stability index was found to be 1.43. With YTPDLPRADVDHAIEKQFQLWSNV [A17Q], the protein stability index is 1.82. Then YTPDLPRADVDHAIEKFFQLWSNV [A17F], with 1.97.

Consider YTPDLPRADVDHAIEKMFQLWSNV [A17M], for which the protein stability index worked out at 2. Consider YTPDLPRADVDHAIEKTFQLWSNV [A17T], for which the protein stability index stood at 2.54. For the variant YTPDLPRADVDHAIEKRFQLWSNV [A17R], the protein stability index stood at 1.63. With YTPDLPRADVDHAIEKGFQLWSNV [A17G] the figure was 1.93; with YTPDLPRADVDHAIEKHFQLWSNV [A17H], 2.68.

Consider YTPDLPRADVDHAIEKWFQLWSNV [A17W], for which the protein stability index is 1.25. Turning to YTPDLPRADVDHAIEKVFQLWSNV [A17V], the protein stability index came to 2.38.

Consider YTPDLPRADVDHAIEKKFQLWSNV [A17K], for which the protein stability index was determined as 1.44. With YTPDLPRADVDHAIEKDFQLWSNV [A17D] the figure was 1.97; with YTPDLPRADVDHAIEKSFQLWSNV [A17S], 2.11; with YTPDLPRADVDHAIEKYFQLWSNV [A17Y], 1.68. Then YTPDLPRADVDHAIEKLFQLWSNV [A17L], with 1.79; and YTPDLPRADVDHAIEKIFQLWSNV [A17I], with 2.15.

For the variant YTPDLPRADVDHAIEKCFQLWSNV [A17C], the protein stability index came to 1.83. Turning to YTPDLPRADVDHAIEKNFQLWSNV [A17N], the protein stability index stood at 1.53.

Turning to YTPDLPRADVDHAIEKEFQLWSNV [A17E], the protein stability index turned out to be 1.84.

Regarding YTPDLPRADVDHAIEKAFGLWSNV [Q19G], the protein stability index was 1.75. With YTPDLPRADVDHAIEKAFDLWSNV [Q19D] the figure was 2.5; with YTPDLPRADVDHAIEKAFELWSNV [Q19E], 1.98; with YTPDLPRADVDHAIEKAFALWSNV [Q19A], 1.54.

Turning to YTPDLPRADVDHAIEKAFLLWSNV [Q19L], the protein stability index was found to be 1.05.

On to YTPDLPRADVDHAIEKAFKLWSNV [Q19K], for which the protein stability index is 1.86. Then YTPDLPRADVDHAIEKAFWLWSNV [Q19W], with 1.96; and YTPDLPRADVDHAIEKAFMLWSNV [Q19M], with 1.68; and YTPDLPRADVDHAIEKAFFLWSNV [Q19F], with 2.43. Turning to YTPDLPRADVDHAIEKAFILWSNV [Q19I], the protein stability index is 2.33. Turning to YTPDLPRADVDHAIEKAFRLWSNV [Q19R], the protein stability index is 2.15. Turning to YTPDLPRADVDHAIEKAFHLWSNV [Q19H], the protein stability index was 1.97.

For the variant YTPDLPRADVDHAIEKAFYLWSNV [Q19Y], the protein stability index came out at 1.87.

With YTPDLPRADVDHAIEKAFVLWSNV [Q19V], the protein stability index is 2.66.

As to YTPDLPRADVDHAIEKAFPLWSNV [Q19P], the protein stability index was determined as 1.52. With YTPDLPRADVDHAIEKAFCLWSNV [Q19C] the figure was 3.82; with YTPDLPRADVDHAIEKAFTLWSNV [Q19T], 3.63. YTPDLPRADVDHAIEKAFSLWSNV [Q19S]: the protein stability index was determined as 1.7. As to YTPDLPRADVDHAIEKAFNLWSNV [Q19N], the protein stability index was found to be 2.82. Take YTPDLPRADVDHAIEKAFQHWSNV [L20H]: the protein stability index is 2.38. With YTPDLPRADVDHAIEKAFQAWSNV [L20A], the protein stability index came to 2.17. Then YTPDLPRADVDHAIEKAFQVWSNV [L20V], with 2.76; and YTPDLPRADVDHAIEKAFQRWSNV [L20R], with 1.99.

Turning to YTPDLPRADVDHAIEKAFQPWSNV [L20P], the protein stability index amounted to 1.88. With YTPDLPRADVDHAIEKAFQIWSNV [L20I] the figure was 2.16; with YTPDLPRADVDHAIEKAFQSWSNV [L20S], 2.29.

For the variant YTPDLPRADVDHAIEKAFQYWSNV [L20Y], the protein stability index is 1.78.

On to YTPDLPRADVDHAIEKAFQKWSNV [L20K], for which the protein stability index was found to be 2.9. In the case of YTPDLPRADVDHAIEKAFQWWSNV [L20W], the protein stability index came to 1.1. Consider YTPDLPRADVDHAIEKAFQCWSNV [L20C], for which the protein stability index stood at 1.84. In the case of YTPDLPRADVDHAIEKAFQTWSNV [L20T], the protein stability index is 2.21.

YTPDLPRADVDHAIEKAFQEWSNV [L20E]: the protein stability index came to 3.55. Take YTPDLPRADVDHAIEKAFQNWSNV [L20N]: the protein stability index amounted to 2.19. With YTPDLPRADVDHAIEKAFQDWSNV [L20D] the figure was 2.96; with YTPDLPRADVDHAIEKAFQQWSNV [L20Q], 1.59. With YTPDLPRADVDHAIEKAFQFWSNV [L20F] the figure was 2.67; with YTPDLPRADVDHAIEKAFQGWSNV [L20G], 1.9.

YTPDLPRADVDHAIEKAFQMWSNV [L20M]: the protein stability index was determined as 1.77. With YTPDLPRADVDHAIEHAFQLWSNV [K16H] the figure was 2.06; with YTPDLPRADVDHAIELAFQLWSNV [K16L], 1.52; with YTPDLPRADVDHAIEMAFQLWSNV [K16M], 1.54. With YTPDLPRADVDHAIEQAFQLWSNV [K16Q] the figure was 1.76; with YTPDLPRADVDHAIERAFQLWSNV [K16R], 1.8.

In the case of YTPDLPRADVDHAIEEAFQLWSNV [K16E], the protein stability index came to 1.76.

YTPDLPRADVDHAIEFAFQLWSNV [K16F]: the protein stability index amounted to 1.52.

Take YTPDLPRADVDHAIEPAFQLWSNV [K16P]: the protein stability index stood at 1.83. Take YTPDLPRADVDHAIECAFQLWSNV [K16C]: the protein stability index came to 2.02.

With YTPDLPRADVDHAIEDAFQLWSNV [K16D], the protein stability index turned out to be 1.71. With YTPDLPRADVDHAIEIAFQLWSNV [K16I] the figure was 2.71; with YTPDLPRADVDHAIESAFQLWSNV [K16S], 2; with YTPDLPRADVDHAIEGAFQLWSNV [K16G], 1.19. YTPDLPRADVDHAIETAFQLWSNV [K16T]: the protein stability index amounted to 2.03. Take YTPDLPRADVDHAIEYAFQLWSNV [K16Y]: the protein stability index worked out at 3.76. Then YTPDLPRADVDHAIEWAFQLWSNV [K16W], with 3.17.

Take YTPDLPRADVDHAIEAAFQLWSNV [K16A]: the protein stability index is 2.07. For YTPDLPRADVDHAIENAFQLWSNV [K16N], the protein stability index was determined as 1.52.
